Measured values as given in patent US10533231B2, “Artificial bioluminescent enzyme” (NATIONAL INSTITUTE OF ADVANCED INDUSTRIAL SCIENCE AND …, priority 2012, dated 2020).

Legend:
[1] = system: EB3 cells expressing cSimgr13; assay: Stress hormone sensitivity of ES cells expressing cSimgr13 (Example 1-17); format: cell-based; details: 10^−5 M, 20 minutes
Experimental: Novel ES cells expressing cSimgr13, which is an integrated-molecule-format bioluminescent probe containing the ALuc of Example 10 in its frame structure were established to visualize stress hormone sensitivity (FIG. 17). First, EB3 cells, which are feeder-free embryonic stem cells (ES), were cultured in a 10 cm dish, and then a pcDNA3.1 (+) vector encoding cSimgr13 was introduced into the EB3 cells. In the presence of G418, transformed cells stably expressing cSimgr13 were established.
One day after the subculturing of the transformed cells in a microslide, some of the cells in the wells were used as a control (0.1% DMSO), and the others were stimulated with 10^−5 M stress hormone (cortisol) for 20 minutes. Subsequently, after lysis, the cells were illuminated using a substrate-containing assay buffer in accordance with the protocol of luminescence assay kit produced by Promega, and the luminescence intensity was measured using an LAS-4000.

COS-7 cells [2] = assay: Toxicity of STS by change in luminescence spectrum (Example 1-12); format: cell-based, monkey; details: STS (1 μM) stimulation vs without, 10 minutes
Experimental: Using the luminescence measurement device of the present invention, the toxicity of a cell death-inducing chemical substance (STS) was measured based on changes in luminescence spectrum (see FIG. 12). First, monkey kidney-derived COS-7 cells were scattered in a commercially available microslide for cell culturing (produced by ibidi), and the cells were cultured until 90% of the microslide area was filled with the cells. The cells were transfected with a plasmid encoding a bioluminescence probe, followed by culturing for 24 hours. The cells cultured in the microslide were stimulated with or without STS (final concentration: […]) for 10 minutes.
The luminescence measurement was performed in the following manner. The microslide was washed once with an […] buffer, and a substrate-containing HBSS buffer (100 μL) was simultaneously introduced into each slide channel, and the microslide was mounted on the measurement device. After the device was covered with a mirror cap, the device was further mounted on a conventional spectrum meter (AB-1850; ATTO) (FIG. 12A). The luminescence spectrum from each channel was measured (two-minute light condensation, n=3, see FIG. 12B).

COS-7 cells [3] = assay: Toxicity of STS with luminescence measurement device and luminometer (Example 1-11); format: cell-based, monkey; details: STS 1 μM, 10 minutes, membrane-localized probe
Experimental: Using the luminescence measurement device, the toxicity of a cell death-inducing chemical substance (STS) was measured (see FIG. 11). Monkey kidney-derived COS-7 cells were scattered in a commercially available microslide for cell culturing (produced by ibidi), and the cells were cultured until 90% of the microslide area was filled with the cells. The cells were transfected with a plasmid encoding a bioluminescence probe, followed by culturing for another 24 hours. The cells cultured in the microslide were stimulated with or without STS (final concentration: 1 μM) for 10 minutes (FIG. 11B).
The luminescence measurement was performed in the following manner. The microslide was washed once with an HBSS buffer, and a substrate-containing HBSS buffer (100 μL) was simultaneously introduced into each microslide channel, and the microslide was immediately fixed to the luminescent measurement device. […] The luminescence value was measured by changing the channels and the filters (three-second light condensation, n=3, see FIG. 11C).

COS-7 cells [4] = assay: Cytotoxic measurement using bioluminescent capsule containing ALuc16 (Example 1-13); format: cell-based; details: stimulated for two minutes, capsule SEQ ID NO: 19, LAS-4000
Experimental: The cytotoxicity of a chemical substance was measured using the bioluminescent capsule (SEQ ID NO: 19) containing ALuc 16 in its frame structure (FIG. 13). First, COS-7 cells were cultured in a 6-channel microslide, and a gene encoding SEQ ID NO: 19 was introduced into the cells, followed by culturing for another 16 hours. Subsequently, the cells were stimulated for two minutes with or without the cytotoxic substance (STS), and the luminescence image showing a bioluminescence intensity difference in a substrate-containing solution was evaluated using an LAS-4000 (FujiFilm).

[5] = system: stress hormone receptor (glucocorticoid receptor ligand binding domain; GR HLBD); assay: Integrated-molecule-format bioluminescent probes, ALuc16 bisection sites (Example 1-10); format: cell-based; details: presence/absence of cortisol
Description: First, ALuc was bisected into two segments, and arranged right and left. A stress hormone receptor (glucocorticoid receptor ligand binding domain; GR HLBD) and its binding peptide (LXXLL motif) were respectively connected to the end of the two segments. As shown in the lower row of FIG. 10A, the working mechanism of the probe is such that a molecule is folded in the presence of a ligand, thus recovering the luminescence intensity.
In the bisection of ALuc16, the probes were named as cSimgr8 (SEQ ID NO: 21) to cSimgr14 according to its bisection point. The bisection point corresponding to each plasmid is as follows: cSimgr8 (125/126), cSimgr9 (129/130), cSimgr10 (133/134), cSimgr11 (137/138), cSimgr12 (137/138; containing a mutant at the joint portion), cSimgr13 (141/142), and cSimgr14 (146/147).

COS-7 cells [6] = assay: Luminescence intensity of tag-containing ALucs secreted into medium (Example 1-21); format: cell-based; details: culturing one day, Promega kit with nCTZ
Experimental: To compare the luminescence intensity of novel luciferases, a comparison experiment was performed under the same conditions as Example 1-2 (COS-7 cells, culturing for one day, using an assay kit produced by Promega) (FIG. 21 (B)). Finally, the luminescence intensity of each luciferase secreted into the medium was compared using an assay kit (containing native coelenterazine (nCTZ)) produced by Promega.

COS-7 cells [7] = assay: Enzymatic activity confirmation of ALuc (section 3-1, 3-2); format: cell-based, African monkey; details: vs conventional copepod luciferases
How it was run: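 ALuc expression vector lipofected into COS-7 cells, with unmutated GLuc as a parallel control. Lysates made about 16 h post-transfection and mixed with coelenterazine substrate. Luminescence intensity read at a chosen wavelength each minute for signal stability; full spectral scans used to detect wavelength shifts.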

COS-7 cells [8] = assay: Luminescence characteristics of tag-containing ALucs (Example 1-22); format: cell-based; details: medium two days after gene transfer
Experimental: To compare the relative luminescence intensity of these luciferases, the following experiment was conducted. First, a gene encoding each luciferase was subcloned into pcDNA3.1 (+), which is a eukaryotic expression vector, and each vector was introduced into COS-7 cells. Two days after gene transfer, the relative luminescence intensity of luciferase secreted into each medium was compared using a luminescence reagent produced by Promega.

COS-7 cells [9] = assay: Luminescence stability of ALucs after substrate injection (Example 1-3); format: cell-based, African green monkey; details: Promega lysis and reaction solution
Experimental: The luminescence stability of the artificial luciferases (ALucs) of the present invention was examined in various respects (FIG. 3). COS-7 cells containing each luciferase gene were cultured for 9 hours, and treated with a cell lysis solution produced by Promega for 20 minutes. Temporal changes in luciferase luminescence intensity after the introduction of a substrate-containing reaction solution produced by Promega were observed every five minutes (FIG. 3A).
This experiment was expanded to artificial luciferases ALuc16 to ALuc25 (FIG. 3BC).

COS-7 cells [10] = assay: Comparison of luminescence intensity of ALucs (Example 1-2); format: cell-based, African green monkey; details: COS-7 cultured overnight, Promega assay solution, LAS-4000
COS-7 cells [11] = assay: Mammalian two-hybrid assay with luciferase reporters (Example 1-9); format: cell-based, African green monkey
Experimental: First, using a known gene engineering technique, a novel reporter expression vector obtained by inserting a gene encoding MpLuc4 or ALuc16 into a commercially available reporter expression vector (pG5) was constructed. In addition, pG5-GLuc, which is the result of the researchers' previous study, was also prepared (FIG. 9A).
In addition to any one of the above three types of reporter expression vectors, a vector (pACT-MyoD) expressing a muscle regulatory factor (MyoD) and a vector (pBIND-ID) expressing a transcriptional regulator (ID) were cotransfected into COS-7 cells. After culturing overnight in a cell culturing device, a lysis solution and a substrate solution produced by Promega were used to cause a luminescent reaction, and difference in luminescence intensity varying according to the reporter difference was compared.
Along with the measurement, the luminescence value from the supernatant (medium) during cell culturing was simultaneously measured.

[12] = Heat resistance of ALucs in lysate (Example 1-4); format: physicochemical; details: 80° C. for 10 minutes
Experimental: The heat resistance and degree of extracellular secretion of artificial luciferases of the present invention were measured (FIG. 4). First, to measure heat resistance, COS-7 cells containing each luciferase were lysed in cell lysis solutions produced by Promega to prepare lysates. Subsequently, same samples were allowed to stand at room temperature or heated at 80° C. for 10 minutes, and changes in luminescence intensity were compared by using a (substrate-containing) reaction solution produced by Promega.

[13] = Prolonged activity stability of ALucs secreted in medium (Example 1-19); format: physicochemical
Experimental: The prolonged activity stability of the artificial luciferases (ALucs) developed in the present invention was examined. First, a plasmid expressing each artificial luciferase (ALuc16, ALuc22, ALuc23, ALuc24, ALuc25, and ALuc30) (in the figure, each is referred to as A16, A22, A23, A24, A25, and A30) was introduced into COS-7 cells, and then culturing was continued for 24 hours. By the culturing, each artificial luciferase was secreted into the medium. The artificial luciferase secreted in the medium was collected, and a difference in enzymatic activity was measured under the same conditions in the following manner. On the first day (Day 0), 50 μL of assay solution (containing native coelenterazine, produced by Promega) was added to 5 μL of each medium, and the luminescence value (enzymatic activity) was measured using an LAS-4000 (produced by FujiFilm). In the same manner, the luminescence value on Day 8, Day 16, and Day 25 was compared with the luminescence value on Day 0 (FIG. 19 (A)).

COS-7 cells [14] = assay: Degree of extracellular secretion of ALucs (Example 1-4); format: cell-based, African green monkey; details: luminescence intensity of the medium, overnight culture
Experimental: Further, each luciferase (ALuc) was introduced into COS-7 cells, culturing was performed overnight, and then the amount of each luciferase (ALuc) secreted from the cells was measured based on the luminescence intensity of the medium (FIG. 4B).

C[C@]12CCC(=O)C=C1CC[C@@H]1[C@@H]2[C@@H](O)C[C@@]2(C)[C@H]1CC[C@]2(O)C(=O)CO [cortisol]
luminescence vs control (0.1% DMSO) [1]: stronger luminescence than the control

CN[C@@H]1C[C@H]2O[C@@](C)([C@@H]1OC)n1c3ccccc3c3c4c(c5c6ccccc6n2c5c31)C(=O)NC4 [STS]
change of luminescence spectrum (COS-7 cells [2]): increase in the luminescence intensity in the full wavelength | increase of luminescence intensity (COS-7 cells [3]): about 75% | luminescence intensity with vs without cytotoxic substance (COS-7 cells [4]): two folds higher

B1: cSimgr8: integrated-molecule-format bioluminescent probe, ALuc16 bisected at 125/126, SEQ ID NO: 21 (protein)
chain: MNALLRYLLDKDGSGIGEAIVDIPEIPGFKDLEPMEQFIAQVDLCVDCTTGCLKGLANVKCSDLLKKWLPSRCATFASKIQAQVDKIKGAGGLSGSGGNPTENKDDIDIVGVEGKFGTTDLETDLFTIVEDMNVISRDTDVDANRADRGRRGKLPGKKLPLEVLKELEANAQKAGCTRGCLICLSHIKCTAKMKKWLPGRCESWEGDKETGQGGGGGTMNLEARKTKKKIKGIQQATTGVSQETSENPGNKTIVPATLPQLTPTLVSLLEVIEPEVLYAGYDSSVPDSTWRIMTTLNMLGGRQVIAAVKWAKAIPGFRNLHLDDQMTLLQYSWMFLMAFALGWRSYRQSSANLLCFAPDLIINEQRMTLPCMYDQCKHMLYVSSELHRLQVSYEEYLCMKTLLLLSSVPKDGLKSQELFDEIRMTYIKELGKAIVKREGNSSQNWQRFYQLTKLLDSMHEVVENLLNYCFQTFLDKTMSIEFPEMLAEIITNQIPKYSNGNIKKLLFHQK
modifications: Synthetic cSimgr8 (single-chain probe)
S/N ratio of probe [5]: good S/N ratio | absolute luminescence intensity of probe [5]: low absolute luminescence intensity

B2: ALuc34: artificial luciferase containing a Flag-tag, SEQ ID NO: 36 (protein)
chain: MMGIKVLFALICFALVQANMMDYKDDDDKVGVEGKFGTTDLETDLFTIVEDMNVISRDTDVDANRADRGRRGKLPGKKLPLEVLKELEANAQKAGCTRGCLICLSHIKCTAKMKKWLPGRCESWEGDKETGQGGIGEAIVDIPEIPGFKELAPMEQFIAQVDLCADCTTGCLKGLANVKCSALLKKWLPSRCAGFADKIQAQVDTIKGAGGS
modifications: Flag tag; Synthetic Aluc34
luminescence intensity of luciferase secreted into the medium (COS-7 cells [6]): relatively high luminescence intensity | luminescence stability (general statement) (COS-7 cells [7]): remarkably stable luminescence signals | relative luminescence intensity (COS-7 cells [8]): relatively high luminescence intensity

B3: ALuc16: artificial luciferase, SEQ ID NO: 13 (protein)
chain: MMGIKVLFALICFALVQANPTENKDDIDIVGVEGKFGTTDLETDLFTIVEDMNVISRDTDVDANRADRGRRGKLPGKKLPLEVLKELEANAQKAGCTRGCLICLSHIKCTAKMKKWLPGRCESWEGDKETGQGGIGEAIVDIPEIPGFKDLEPMEQFIAQVDLCVDCTTGCLKGLANVKCSDLLKKWLPSRCATFASKIQAQVDKIKGAGGS
modifications: Synthetic ALuc16
luminescence intensity (initial) (COS-7 cells [9]): advantageous initial luminescence intensity | luminescence intensity higher than that of conventional GLuc, Renilla luciferase and MpLuc4 (COS-7 cells [10]): about 50 folds | luminescence value from the supernatant (medium) (COS-7 cells [11]; during cell culturing): slightly strong bioluminescence | luminescence intensity as two-hybrid reporter (COS-7 cells [11]; lysate, equal conditions, vs MpLuc4 and GLuc reporters): highest luminescence intensity | change of luminescence intensity by heating [12]: a remarkable reduction in luminescence intensity that may be due to heating was not observed | luminescence stability (general statement) (COS-7 cells [7]): remarkably stable luminescence signals | prolonged enzymatic activity stability ([13]; Day 0 to Day 25): significant decrease in enzymatic activity | remaining enzymatic (luminescence) activity vs initial ([13]; after 25 days): 20% | extracellular secretion (COS-7 cells [14]): relatively high extracellular secretion
